How the values were obtained:
[1] = target: HupZ-V5-His6 (heme utilization protein Z with a C-terminal V5-His6 tag) (Streptococcus pyogenes (Group A Streptococcus)); experiment: SEC; ligand-free protein, 200 uM, 1 mL injected; Superdex Increase 200 10/300 GL, 20 mM Tris-HCl, 50 mM NaCl, pH 7.4, 0.4 mL/min; mass from a calibration curve of standards
[2] = target: HupZ-V5-His6 (heme utilization protein Z with a C-terminal V5-His6 tag) (Streptococcus pyogenes (Group A Streptococcus)); experiment: SEC; protein reconstituted with 1.2 eq hemin and desalted, 200 uM, 1 mL injected; Superdex Increase 200 10/300 GL, 20 mM Tris-HCl, 50 mM NaCl, pH 7.4, 0.4 mL/min; mass from a calibration curve of standards
[3] = target: H111A HupZ-V5-His6 (Streptococcus pyogenes (Group A Streptococcus)); experiment: SEC; ligand-free protein, 200 uM, 1 mL injected; Superdex Increase 200 10/300 GL, 20 mM Tris-HCl, 50 mM NaCl, pH 7.4, 0.4 mL/min; mass from a calibration curve of standards
[4] = target: H111A HupZ-V5-His6 (Streptococcus pyogenes (Group A Streptococcus)); experiment: SEC; protein reconstituted with 1.2 eq hemin and desalted, 200 uM, 1 mL injected; Superdex Increase 200 10/300 GL, 20 mM Tris-HCl, 50 mM NaCl, pH 7.4, 0.4 mL/min; mass from a calibration curve of standards

Question: Which stoichiometry N [1] does the source give for “HupZ-V5-His6 (heme utilization protein Z with a C-terminal V5-His6 tag) (natural protein)” here?
Answer: Its stoichiometry N is 2.

Question: What about the stoichiometry N [2] of the same substance?
Answer: The stoichiometry N was 2.

Question: How did the stoichiometry N [3] turn out when H111A HupZ-V5-His6 (natural protein) was run?
Answer: Its stoichiometry N is 2.

Question: What about the stoichiometry N [4] of the same substance?
Answer: The stoichiometry N was 2.
